B1: Protein canopy homolog 2 (Mus musculus), Q9QXT0 (parent)
chain: MKGWGWLALLLGVLLGTAWARRSQDLHCGACRALVDELEWEIARVDPKKTIQMGSFRINPDGSQSVVEVPYARSEAHLTELLEEVCDRMKEYGEQIDPSTHRKNYVRVVSRNGESSELDLQGIRIDSDISGTLKFACESIVEEYEDELIEFFSREADNVKDKLCSKRTDLCDHALHRSHDEL
partner: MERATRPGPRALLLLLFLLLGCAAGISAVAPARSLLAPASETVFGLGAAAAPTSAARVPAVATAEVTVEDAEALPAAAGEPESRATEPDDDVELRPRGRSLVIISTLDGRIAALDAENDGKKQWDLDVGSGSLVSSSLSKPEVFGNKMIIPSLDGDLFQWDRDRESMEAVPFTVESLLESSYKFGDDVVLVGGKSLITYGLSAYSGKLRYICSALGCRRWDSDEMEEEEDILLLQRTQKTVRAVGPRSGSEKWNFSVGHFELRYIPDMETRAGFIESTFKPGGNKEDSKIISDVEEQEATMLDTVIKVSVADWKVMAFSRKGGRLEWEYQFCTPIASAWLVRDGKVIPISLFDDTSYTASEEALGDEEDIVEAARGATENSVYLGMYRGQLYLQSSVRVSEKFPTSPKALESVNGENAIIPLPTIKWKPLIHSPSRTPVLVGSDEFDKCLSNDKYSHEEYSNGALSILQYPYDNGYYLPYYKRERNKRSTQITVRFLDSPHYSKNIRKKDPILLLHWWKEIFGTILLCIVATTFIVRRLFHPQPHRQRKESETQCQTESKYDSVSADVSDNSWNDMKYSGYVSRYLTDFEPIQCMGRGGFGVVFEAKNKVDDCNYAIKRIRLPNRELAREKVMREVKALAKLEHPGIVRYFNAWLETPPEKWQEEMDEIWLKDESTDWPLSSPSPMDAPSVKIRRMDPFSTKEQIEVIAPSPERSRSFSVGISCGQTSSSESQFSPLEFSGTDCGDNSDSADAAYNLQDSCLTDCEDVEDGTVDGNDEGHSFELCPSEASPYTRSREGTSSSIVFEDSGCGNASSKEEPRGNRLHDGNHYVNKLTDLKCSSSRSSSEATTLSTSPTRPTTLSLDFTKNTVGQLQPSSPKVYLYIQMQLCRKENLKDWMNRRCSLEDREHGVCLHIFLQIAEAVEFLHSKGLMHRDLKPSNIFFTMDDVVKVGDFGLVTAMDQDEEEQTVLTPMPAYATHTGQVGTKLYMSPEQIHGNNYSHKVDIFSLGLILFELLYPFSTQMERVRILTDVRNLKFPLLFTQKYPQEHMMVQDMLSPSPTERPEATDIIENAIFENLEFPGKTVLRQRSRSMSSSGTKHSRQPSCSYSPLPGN

Variants of: B1
Details: with Eif2ak3, Q9Z2B5
In the case of C28A;C31A;C86A, the “effect of a mutation on the interaction” value is reported as “increasing interaction”.

Variants of: B1
Details: with Eif2ak3, Q9Z2B5
Remark: another data set of the same source
In the case of C28A;C31A;C86A;C137A;C164A;C171A, the “effect of a mutation on the interaction” value is reported as “disrupting interaction”.
